Measurements published in patent publication US20160108091A1 (Novartis, published 2016).
Bridges are numbered along the chain shown (N, C = ends). [ ]: non-standard residue; d: D form. hCys = N[C@@H](CCS)C(=O)O; Nle = CCCC[C@H](N)C(=O)O

T1: human APJ receptor (hAPJ) (human, UniProt P35414 1-380)
T1 sequence (looked up): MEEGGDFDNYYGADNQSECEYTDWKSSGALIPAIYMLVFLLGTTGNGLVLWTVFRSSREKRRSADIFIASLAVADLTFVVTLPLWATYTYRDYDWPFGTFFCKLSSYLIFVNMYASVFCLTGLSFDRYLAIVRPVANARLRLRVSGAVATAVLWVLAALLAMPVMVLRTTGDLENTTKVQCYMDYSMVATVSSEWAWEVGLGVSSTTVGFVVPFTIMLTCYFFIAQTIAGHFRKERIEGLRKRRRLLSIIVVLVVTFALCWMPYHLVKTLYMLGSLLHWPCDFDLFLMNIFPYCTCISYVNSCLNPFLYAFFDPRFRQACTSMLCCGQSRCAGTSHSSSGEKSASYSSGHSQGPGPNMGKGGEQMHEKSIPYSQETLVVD

B1: Ac-hC*-R-P-R-L-S-hC*-K-G-P-Nle-P-F-OH (peptide)
peptide: Ac-[hCys]RPRLS[hCys]KGP[Nle]PF-OH
modifications: disulfide 1-7
SMILES: CCCC[C@H](NC(=O)[C@@H]1CCCN1C(=O)CNC(=O)[C@H](CCCCN)NC(=O)[C@@H]1CCSSCC[C@H](NC(C)=O)C(=O)N[C@@H](CCCNC(=N)N)C(=O)N2CCC[C@H]2C(=O)N[C@@H](CCCNC(=N)N)C(=O)N[C@@H](CC(C)C)C(=O)N[C@@H](CO)C(=O)N1)C(=O)N1CCC[C@H]1C(=O)N[C@@H](Cc1ccccc1)C(=O)O
B2: Ac-C*-R-P-R-L-S-C*-K-G-P-Nle-P-a-OH (peptide)
peptide: Ac-CRPRLSCKGP[Nle]P[dA]-OH
modifications: disulfide 1-7
SMILES: CCCC[C@H](NC(=O)[C@@H]1CCCN1C(=O)CNC(=O)[C@H](CCCCN)NC(=O)[C@@H]1CSSC[C@H](NC(C)=O)C(=O)N[C@@H](CCCNC(=N)N)C(=O)N2CCC[C@H]2C(=O)N[C@@H](CCCNC(=N)N)C(=O)N[C@@H](CC(C)C)C(=O)N[C@@H](CO)C(=O)N1)C(=O)N1CCC[C@H]1C(=O)N[C@H](C)C(=O)O

These binders were tested against T1, human APJ receptor (hAPJ) (assay: cell-based or functional assay).

Row | Binder | hAPJ Ca^2+ Flux EC50 [nM]
1 | B1 | 11.8
2 | Ac-CRPRLSCKGP[Nle]P-{NMe(Phenethyl)} (disulfide 1-7) [Ac-C*-R-P-R-L-S-C*-K-G-P-Nle-P-NMe(Phenethyl)] | 23.4
3 | B2 | 13.1
